Test results: US20100266502A1 (Chugai, published 2010)

What was measured:
[1] = molecular target: T1, active-form HB-EGF protein (R&D Systems, Inc., 259-HE) (human, UniProt Q99075 63-148); assay: cell-based or functional assay
[2] = molecular target: T1, active-form HB-EGF protein (R&D …); assay: ELISA, purified antibody on plate coated with 1 µg/mL HB-EGF; given as ED50
[3] = molecular target: T1, active-form HB-EGF protein (R&D …); assay: competition ELISA: inhibition of HB-EGF (50 ng/mL) binding to immobilised EGFR-Fc
[4] = molecular target: T1, active-form HB-EGF protein (R&D …); assay: cell-based or functional assay; remark: listed apart in the source
[5] = molecular target: T1, active-form HB-EGF protein (R&D …); assay: ELISA, purified antibody on plate coated with 1 µg/mL HB-EGF; printed as ED50 (antibody concentration that gave 50% binding)

T1 sequence (Q99075 63-148 limits assumed): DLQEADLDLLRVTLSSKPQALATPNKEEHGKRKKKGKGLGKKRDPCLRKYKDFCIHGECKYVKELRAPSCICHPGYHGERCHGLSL

| Binder | Inhibition of HB-EGF-dependent growth (EC50, nmol/L) [1] | EC50 [2] | EC50 [3] | EC50 (nM), growth-inhibiting effect on EGFR_Ba/F3 cells [4] | EC50 [5] |
| --- | --- | --- | --- | --- | --- |
| HE-39 (antibody, V domains shown) VH: EVQLQQSGPELMKPGASVKMSCKASGYIFTDYYMNWVKQSHGKSLEWIGRVNPNNGGTSYSQKFKDKATLTVDKSLNTAYMQVNSLTSEDSAVYYCARIYYGGSDWGQGTTLTVSS VL: EIVMTQTPLSLSVTIGQPASISCKSSQSLLYTTGKTYLNWLQQRPGQAPKHLMYQVSKLVPGIPDRFSGSGSETDFTLKISRVEAEDLGVYYCLQGTYYPHTFGSGTKLEIK | 0.83 nmol/L | 0.016 nM | 0.86 nM | – | – |
| HC-15 (antibody, V domains shown) VH: EVQLQQSGPELVKPGASVKISCKASGYSFTGYYMHWVKQSPEKRLEWIGEINPRTGITTYNQKFKAKATLTVDKSSSTAYMQLKSLTSEDSAVYYCARVGSSGPFTYWGQGTLVTVSA VL: DIVMTQSPSSLSVSAGDKVTMSCKSSQSLLNSRNQKNYLAWYQQKPWQPPKLLIYGASTRESGVPDRFTGSGSGTDFTLTISSVQAEDLAVYYCQNDYSYPFTFGTGTKLEIK | 2.06 nmol/L | 0.65 nM | 0.52 nM | 3.8 nM | 0.2 nM |
